From publication PMC10593859 (2023)

What was measured:
[1] = molecular target: Ad26 viral particles; test: SPR; pre-vaccination human serum (1:5) flowed over Ad26 first
[2] = molecular target: Ad26 viral particles; test: SPR; post-Ad26 vaccination human serum (1:5) flowed over Ad26 first
[3] = molecular target: Ad26 viral particles; test: as above; remark: listed apart in the source
[4] = molecular target: Ad26 viral particles; test: SPR; pre-vaccination human serum (1:5) flowed over Ad26 first; remark: listed apart in the source

B1: recombinant human platelet factor 4 (PF4) (natural protein)
chain: EAEEDGDLQCLCVKTTSQVRPRHITSLEVIKAGPHCPTAQLIATLKNGRKICLDLQAPLYKKIIKKLLES
Kd [1]: 233 nM
Kd [2]: 612 nM
Kd [3]: 478 nM
Kd [4]: 122 nM
